Experimental data: article PMC8220723

Assays:
[1] = target: wild-type human ASCT2 fused to AcGFP (FuTraP-hASCT2-wt) (human) (UniProt Q15758)
[2] = target: FuTraP-hASCT2-d17, human ASCT2 with a deletion of 17 amino acids of region C, fused to AcGFP (human) (UniProt Q15758)
[3] = target: FuTraP-hASCT2-d17, human ASCT2 with a deletion of 17 amino acids of region C, fused to AcGFP (human) (UniProt Q15758); remark: listed apart in the source
[4] = flow cytometry, AcGFP MFI normalised to iRFP713 MFI; settings: glycan lost; control: wild type (FuTraP-hASCT2-wt)
[5] = confocal microscopy, AcGFP with membrane dye; settings: glycan lost; control: wild type (FuTraP-hASCT2-wt)
[6] = infection, dsRed-positive cells by flow cytometry; settings: glycan lost; control: wild type (FuTraP-hASCT2-wt)

Molecule | spinoculation of cells expressing the FuTraP variant with MCAS(Sync1-MSC16)dsRed, infected (dsRed-positive) cells by flow cytometry [1] [%] | spinoculation of cells expressing the FuTraP variant with MCAS(Sync1-MSC16)dsRed, infected (dsRed-positive) cells by flow cytometry [2] [%] | infection of DF-1/LgBiT cells expressing the FuTraP variant by MCAS(Sync1-MSC16)dsRed, dsRed-positive cells by flow cytometry (reduced sensitivity compared to the wild type) [3] [%] | expression_or_secretion, percent_of_wt [4] | localisation_or_trafficking [5] | other: receptor-mediated sensitivity to viral infection [6]
Syncytin-1 envelope glycoprotein of the chimeric virus MCAS(Sync1-MSC16)dsRed (cytoplasmic tail shortened to 16 amino acids) (from UniProt Q9UQF0 21-538) (natural protein) | 56 | 21 | 1.7 | – | – | –
ASCT2: N212Q (protein) parent chain: MVADPPRDSKGLAAAEPTANGGLALASIEDQGAAAGGYCGSRDQVRRCLRANLLVLLTVVAVVAGVALGLGVSGAGGALALGPERLSAFVFPGELLLRLLRMIILPLVVCSLIGGAASLDPGALGRLGAWALLFFLVTTLLASALGVGLALALQPGAASAAINASVGAAGSAENAPSKEVLDSFLDLARNIFPSNLVSAAFRSYSTTYEERNITGTRVKVPVGQEVEGMNILGLVVFAIVFGVALRKLGPEGELLIRFFNSFNEATMVLVSWIMWYAPVGIMFLVAGKIVEMEDVGLLFARLGKYILCCLLGHAIHGLLVLPLIYFLFTRKNPYRFLWGIVTPLATAFGTSSSSATLPLMMKCVEENNGVAKHISRFILPIGATVNMDGAALFQCVAAVFIAQLSQQSLDFVKIITILVTATASSVGAAGIPAGGVLTLAIILEAVNLPVDHISLILAVDWLVDRSCTVLNVEGDALGAGLLQNYVDRTESRSTEPELIQVKSELPLDPLPVPTEEGNPLLKHYRGPAGDATVASEKESVM | – | – | – | decreases | no change | no change
